# Test results from patent US20210179715A1 (published 2021).
# Where a chain is given by its changes, count along the chain named. In names and notes the source's numbering stands. Like-named read-outs stand apart in the source and are kept apart here.
# T1: human Ly6G6D polypeptide (UniProt O95868 20-104)
# T1 chain: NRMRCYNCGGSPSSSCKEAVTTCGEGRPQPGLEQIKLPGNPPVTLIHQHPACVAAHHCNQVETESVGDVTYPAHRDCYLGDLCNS
# T2: human LY6G6D-Fc (UniProt O95868 20-104)
# T2 chain: T1 chain
# B1: hu6E10.K1-5.V4-4 (antibody, V domains shown)
# VH: EQQLQESGPGLVKPPGTLSLTCAVSGLSLSTNSINWVRQPPGKGLEWIGYIYHGDGIADYASWAKGRFTISKDSSKTQVSLKLSSVTAADTAVYFCASGAGYSLFTLWGPGTLVTVSS
# VL: DAQLTQSPSTLSASVGDRVTITCQSSESVWHNNWLAWFQQKPGKRPKLLIYGASTLASGVPSRFSGSGSGTEFTLTISSLQPDDFATYYCAGGYSSSDAHVFGGGTKVEIK
# B2: LY6G6D (other)
# chain: T1 chain
# B3: Ly6G6D (Fc fusion)
# chain: T1 chain
# B4: rb20A12.IA (C35I-C50A) chimeric Fab (Fab, V domains shown)
# VH: QQQLEESGGDLVKPGASLTLTCTASGFDFVNNAMIWVRQAPGKGLEWIAALSFADNTAYYATWASGRFTISKISSTTVTLRMTSLTGADTATYFCMRGDLWGPGTLVTVSS
# VL: DIVMTQTPSSVSAAVGGTVTINCQASESITRYLNWYQQKPGQPPKLLIYDASKLPSGVPSRFKGSGSGTQFTLTTSDLECADAATYYCQSTSFRGRSYNNTFGGGTEVVVK
# B5: hu6E10.K1-5.V3-53 (L1H1) (antibody, V domains shown)
# VH: EQQLVESGGGLIQPGGSLRLSCAVSGLSLSTNSINWVRQAPGKGLEWIGYIYHGDGIADYASWAKGRFTISKDSSKNTVYLQMNSLRAEDTAVYFCASGAGYSLFTLWGPGTLVTVSS
# VL: B1 VL
# B6: hu6E10.K3-20.V3-53 (L1H1) (antibody, V domains shown)
# VH: B5 VH
# VL: EAVLTQSPGTLSLSPGERATLSCQSSESVWHNNWLAWFQQKPGQRPRLLIYGASTLASGVPDRFSGSGSGTDFTLTISRLEPEDFAVYYCAGGYSSSDAHVFGGGTKVEIK
# B7: Ly6G6D (other)
# chain: T1 chain
# B8: hu6E10.K4-1.V3-53 (antibody, V domains shown)
# VH: B5 VH
# VL: DAVLTQSPDSLAVSLGERATINCQSSESVWHNNWLAWFQQKPGQRPKLLIYGASTLASGVPDRFSGSGSGTDFTLTISSLQAEDVAVYYCAGGYSSSDAHVFGGGTKVEIK
# B9: hu6E10.K4-1.V4-4 (antibody, V domains shown)
# VH: B1 VH
# VL: B8 VL
# B10: hu6E10.K3-20.V4-4 (antibody, V domains shown)
# VH: B1 VH
# VL: B6 VL
# B11: 1G4 Fab (Fab, V domains shown)
# VH: EVQLVQSGAEVKKPGASVKVSCKASGYTFTTYVMHWVRQAPGQGLEWMGYINPYNDGTKYNEKFKGRVTMTRDTSISTAYMELSRLRSDDTAVYYCGRRNFDYWGQGTLVTVSS
# VL: DIVMTQSPDSLAVSLGERATINCKSSQSLLLSGNQENYLAWHQQKPGQPPKTLITWASTRISGVPDRFSGSGSGTDFTLTISSLQAEDVAVYYCQQSYSAPYTFGGGTKVEIKR
# B12: hu6E10.K1-5.V3-48 (antibody, V domains shown)
# VH: B5 VH with I12V, S75A, T78S
# VL: B1 VL
# B13: hu6E10.K3-20.V3-48 (antibody, V domains shown)
# VH: B5 VH with I12V, S75A, T78S
# VL: B6 VL
# B14: hu6E10.K4-1.V3-48 (antibody, V domains shown)
# VH: B5 VH with I12V, S75A, T78S
# VL: B8 VL
# What was measured:
# [1] = molecular target: T1, human Ly6G6D polypeptide; test: BIAcore
# [2] = molecular target: Chimeric 1G4; test: Biacore
# [3] = molecular target: NNV; test: BIAcore
# [4] = molecular target: SNA; test: BIAcore
# [5] = molecular target: NNA; test: BIAcore
# [6] = molecular target: QNT; test: BIAcore
# [7] = molecular target: SNV; test: BIAcore
# [8] = molecular target: Parental NNT; test: BIAcore
# [9] = molecular target: ANT; test: BIAcore
# [10] = molecular target: QNV; test: BIAcore
# [11] = molecular target: SNT; test: BIAcore
# [12] = molecular target: GNT; test: BIAcore
# [13] = molecular target: hu.20A12.IA.GNT.H12(V3-23).L2(K1-5); test: BIAcore; 37 C
# [14] = molecular target: hu.20A12.IA.QNV.H12(V3-23).L2(K1-5); test: BIAcore; 37 C
# [15] = molecular target: hu.20A12.IA.SNA.H12(V3-23).L2(K1-5); test: BIAcore; 37 C
# [16] = molecular target: 4H7; test: BIAcore; 37 C
# [17] = molecular target: T2, human LY6G6D-Fc; test: BIAcore; 37 C
# [18] = molecular target: IS; test: BIAcore
# [19] = molecular target: SS; test: BIAcore
# [20] = molecular target: SA; test: BIAcore
# [21] = molecular target: T2, human LY6G6D-Fc; test: BIAcore; 37 C
binder,measurement,setting,value
B1,Kd,[1],3.34 nM
B2,Kd,[2],2.7 nM
same,Kd,[3],0.22 nM
same,Kd,[4],0.27 nM
same,Kd,[5],0.26 nM
same,Kd,[6],0.28 nM
same,Kd,[7],0.23 nM
same,Kd,[8],0.43 nM
same,Kd,[9],0.26 nM
same,Kd,[10],0.22 nM
same,Kd,[11],0.25 nM
same,Kd,[12],0.34 nM
B3,Kd,[13],0.122 nM
same,Kd,[14],0.0335 nM
same,Kd,[15],0.105 nM
same,Kd,[16],0.36 nM
B4,Kd,[17],0.704 nM
B5,Kd,[1],1.63 nM
B6,Kd,[1],1.3 nM
B7,Kd,[18],1.26 nM
same,Kd,[19],2.7 nM
same,Kd,[20],2.74 nM
B8,Kd,[1],1.66 nM
B9,Kd,[1],3.6 nM
B10,Kd,[1],3.11 nM
B11,Kd,[21],1.45 nM
B12,Kd,[1],1.03 nM
B13,Kd,[1],1.3 nM
B14,Kd,[1],1.41 nM
